We go through 7 molecules from article PMC6436931, “Activation of the Endonuclease that Defines mRNA 3′ Ends Requires Incorporation into an 8-Subunit Core Cleavage and Polyadenylation Factor Complex” (Molecular Cell, 2019).

The chains are these.
B1: Rna14-Rna15 complex (6H-Rna14-Rna15) (complex, S. cerevisiae)
chain 1: MSSSTTPDLLYPSADKVAEPSDNIHGDELRLRERIKDNPTNILSYFQLIQYLETQESYAKVREVYEQFHNTFPFYSPAWTLQLKGELARDEFETVEKILAQCLSGKLENNDLSLWSTYLDYIRRKNNLITGGQEARAVIVKAFQLVMQKCAIFEPKSSSFWNEYLNFLEQWKPFNKWEEQQRIDMLREFYKKMLCVPFDNLEKMWNRYTQWEQEINSLTARKFIGELSAEYMKARSLYQEWLNVTNGLKRASPINLRTANKKNIPQPGTSDSNIQQLQIWLNWIKWERENKLMLSEDMLSQRISYVYKQGIQYMIFSAEMWYDYSMYISENSDRQNILYTALLANPDSPSLTFKLSECYELDNDSESVSNCFDKCTQTLLSQYKKIASDVNSGEDNNTEYEQELLYKQREKLTFVFCVYMNTMKRISGLSAARTVFGKCRKLKRILTHDVYVENAYLEFQNQNDYKTAFKVLELGLKYFQNDGVYINKYLDFLIFLNKDSQIKTLFETSVEKVQDLTQLKEIYKKMISYESKFGNLNNVYSLEKRFFERFPQENLIEVFTSRYQIQNSNLIKKLELTYMYNEEEDSYFSSGNGDGHHGSYNMSSSDRKRLMEETGNNGNFSNKKFKRDSELPTEVLDLLSVIPKRQYFNTNLLDAQKLVNFLNDQVEIPTVESTKSG
chain 2: MNRQSGVNAGVQNNPPSRVVYLGSIPYDQTEEQILDLCSNVGPVINLKMMFDPQTGRSKGYAFIEFRDLESSASAVRNLNGYQLGSRFLKCGYSSNSDISGVSQQQQQQYNNINGNNNNNGNNNNNSNGPDFQNSGNANFLSQKFPELPSGIDVNINMTTPAMMISSELAKKPKEVQLKFLQKFQEWTRAHPEDAVSLLELCPQLSFVTAELLLTNGICKVDDLIPLASRPQEEASATNNNSVNEVVDPAVLNKQKELLKQVLQLNDSQISILPDDERMAIWDLKQKALRGEFGAF
notes: Rna14, S. cerevisiae; Rna15, S. cerevisiae; The pull-down methods call the prey 'untagged' though the construct carries a His6 tag; also called Rna14–15; source: E. coli BL21 Star (DE3), purified as described previously (Gordon et al., 2011)

Pap1, sequence (P29468 whole entry): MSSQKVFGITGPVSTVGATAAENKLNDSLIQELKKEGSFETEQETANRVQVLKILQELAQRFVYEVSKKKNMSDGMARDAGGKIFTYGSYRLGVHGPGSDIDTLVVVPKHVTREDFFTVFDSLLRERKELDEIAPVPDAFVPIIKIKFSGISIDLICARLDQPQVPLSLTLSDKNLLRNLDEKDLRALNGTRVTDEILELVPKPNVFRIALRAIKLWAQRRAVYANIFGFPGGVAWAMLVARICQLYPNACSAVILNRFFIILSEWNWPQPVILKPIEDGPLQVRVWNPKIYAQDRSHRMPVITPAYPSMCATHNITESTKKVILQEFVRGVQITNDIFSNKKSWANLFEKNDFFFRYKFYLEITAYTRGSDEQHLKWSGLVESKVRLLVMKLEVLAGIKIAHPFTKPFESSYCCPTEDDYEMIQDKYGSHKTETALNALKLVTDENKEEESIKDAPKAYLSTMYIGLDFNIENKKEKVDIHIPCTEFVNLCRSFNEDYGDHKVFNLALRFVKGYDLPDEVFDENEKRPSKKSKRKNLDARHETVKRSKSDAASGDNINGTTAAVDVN
T5 sequence (Q06632 whole entry, chain 1 of 4): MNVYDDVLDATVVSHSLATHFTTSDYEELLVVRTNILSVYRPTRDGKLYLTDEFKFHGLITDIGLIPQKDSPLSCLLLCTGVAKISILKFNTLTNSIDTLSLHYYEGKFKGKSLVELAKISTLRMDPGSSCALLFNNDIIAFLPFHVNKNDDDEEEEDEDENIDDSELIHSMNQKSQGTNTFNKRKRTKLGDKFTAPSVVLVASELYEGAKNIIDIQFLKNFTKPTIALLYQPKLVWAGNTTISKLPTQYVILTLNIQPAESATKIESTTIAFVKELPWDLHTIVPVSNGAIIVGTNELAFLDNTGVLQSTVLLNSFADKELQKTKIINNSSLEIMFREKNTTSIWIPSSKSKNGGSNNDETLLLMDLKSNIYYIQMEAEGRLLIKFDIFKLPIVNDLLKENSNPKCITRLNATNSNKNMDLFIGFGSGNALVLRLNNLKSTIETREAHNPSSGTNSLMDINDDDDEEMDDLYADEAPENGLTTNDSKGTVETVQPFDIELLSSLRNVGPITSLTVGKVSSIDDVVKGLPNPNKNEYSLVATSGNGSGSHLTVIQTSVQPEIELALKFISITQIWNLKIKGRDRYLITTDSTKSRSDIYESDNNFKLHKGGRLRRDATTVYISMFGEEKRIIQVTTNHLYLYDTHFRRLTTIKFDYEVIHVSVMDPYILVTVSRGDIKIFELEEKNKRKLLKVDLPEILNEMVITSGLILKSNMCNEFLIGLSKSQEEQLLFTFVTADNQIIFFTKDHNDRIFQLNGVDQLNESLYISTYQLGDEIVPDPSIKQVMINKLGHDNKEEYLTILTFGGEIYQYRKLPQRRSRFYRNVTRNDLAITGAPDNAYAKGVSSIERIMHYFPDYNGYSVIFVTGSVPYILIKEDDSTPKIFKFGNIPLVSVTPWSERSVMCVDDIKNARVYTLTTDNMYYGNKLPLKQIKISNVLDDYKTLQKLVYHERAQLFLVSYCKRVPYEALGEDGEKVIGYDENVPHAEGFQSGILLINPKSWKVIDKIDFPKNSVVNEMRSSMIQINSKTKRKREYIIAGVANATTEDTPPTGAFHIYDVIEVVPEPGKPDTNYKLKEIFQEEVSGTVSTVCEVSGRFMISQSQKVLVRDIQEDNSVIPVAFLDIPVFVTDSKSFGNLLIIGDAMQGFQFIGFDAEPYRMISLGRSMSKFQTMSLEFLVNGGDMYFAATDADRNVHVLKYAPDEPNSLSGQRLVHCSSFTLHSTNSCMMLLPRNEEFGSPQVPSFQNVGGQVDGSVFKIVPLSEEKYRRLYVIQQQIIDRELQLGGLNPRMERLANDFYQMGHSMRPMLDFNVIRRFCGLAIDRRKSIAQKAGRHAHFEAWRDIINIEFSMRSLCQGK
T5 sequence (P42841 whole entry, chain 2 of 4): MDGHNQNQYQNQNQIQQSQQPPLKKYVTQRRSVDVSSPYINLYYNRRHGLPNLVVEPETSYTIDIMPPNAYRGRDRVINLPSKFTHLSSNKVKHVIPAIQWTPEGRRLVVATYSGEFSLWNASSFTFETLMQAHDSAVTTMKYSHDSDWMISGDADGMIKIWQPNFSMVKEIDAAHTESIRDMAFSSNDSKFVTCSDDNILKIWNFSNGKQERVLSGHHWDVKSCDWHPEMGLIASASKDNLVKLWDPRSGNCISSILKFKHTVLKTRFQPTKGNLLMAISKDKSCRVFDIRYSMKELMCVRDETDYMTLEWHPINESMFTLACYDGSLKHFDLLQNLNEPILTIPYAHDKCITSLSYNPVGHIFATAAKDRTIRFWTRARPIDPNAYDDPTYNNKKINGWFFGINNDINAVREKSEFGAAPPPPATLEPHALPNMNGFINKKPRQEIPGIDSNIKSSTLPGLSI
T5 sequence (Q06102 whole entry, chain 3 of 4): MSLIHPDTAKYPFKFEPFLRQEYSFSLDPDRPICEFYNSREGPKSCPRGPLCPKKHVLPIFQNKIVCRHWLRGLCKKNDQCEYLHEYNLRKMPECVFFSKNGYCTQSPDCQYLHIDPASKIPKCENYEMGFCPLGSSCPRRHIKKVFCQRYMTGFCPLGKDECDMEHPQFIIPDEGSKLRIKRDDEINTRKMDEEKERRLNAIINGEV
T5 sequence (P45976 whole entry, chain 4 of 4): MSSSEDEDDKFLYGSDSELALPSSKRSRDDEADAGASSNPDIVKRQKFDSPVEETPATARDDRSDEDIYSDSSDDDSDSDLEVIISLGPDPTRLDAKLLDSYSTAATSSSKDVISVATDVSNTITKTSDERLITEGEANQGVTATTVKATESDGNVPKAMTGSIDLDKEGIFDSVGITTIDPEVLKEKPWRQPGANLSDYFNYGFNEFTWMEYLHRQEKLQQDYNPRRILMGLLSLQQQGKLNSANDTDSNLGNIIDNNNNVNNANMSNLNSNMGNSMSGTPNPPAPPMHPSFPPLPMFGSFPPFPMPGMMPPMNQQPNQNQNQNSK

One data set deals with T1, Cft2 (Saccharomyces cerevisiae, UniProt Q12102 1-859).
T1 sequence: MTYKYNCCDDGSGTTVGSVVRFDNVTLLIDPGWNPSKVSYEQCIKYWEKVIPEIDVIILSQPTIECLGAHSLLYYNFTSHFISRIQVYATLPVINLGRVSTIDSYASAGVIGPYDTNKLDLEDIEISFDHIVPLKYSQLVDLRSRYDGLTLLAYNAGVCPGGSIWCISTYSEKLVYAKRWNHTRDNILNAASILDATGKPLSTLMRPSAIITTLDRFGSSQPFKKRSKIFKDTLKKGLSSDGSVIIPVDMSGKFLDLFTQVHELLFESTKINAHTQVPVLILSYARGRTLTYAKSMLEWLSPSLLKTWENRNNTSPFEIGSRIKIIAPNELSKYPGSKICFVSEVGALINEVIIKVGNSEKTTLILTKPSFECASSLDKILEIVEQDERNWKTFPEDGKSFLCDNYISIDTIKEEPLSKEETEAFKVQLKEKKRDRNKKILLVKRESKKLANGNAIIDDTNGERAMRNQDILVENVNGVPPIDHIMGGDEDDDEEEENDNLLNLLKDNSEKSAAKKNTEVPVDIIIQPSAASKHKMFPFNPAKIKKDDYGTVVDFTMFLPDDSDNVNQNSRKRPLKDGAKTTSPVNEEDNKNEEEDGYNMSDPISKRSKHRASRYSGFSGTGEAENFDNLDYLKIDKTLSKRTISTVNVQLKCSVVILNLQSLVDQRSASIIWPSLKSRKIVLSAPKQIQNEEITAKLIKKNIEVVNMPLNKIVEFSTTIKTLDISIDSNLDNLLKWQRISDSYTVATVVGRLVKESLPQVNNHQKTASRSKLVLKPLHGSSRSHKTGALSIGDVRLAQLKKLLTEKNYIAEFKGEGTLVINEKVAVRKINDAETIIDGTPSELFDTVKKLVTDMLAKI
The data set can be described thus: EMSA; EMSA: 50 nM RNA, 0.25-4.0 uM protein, protein diluted in 10 mM HEPES pH 7.9, 150 mM NaCl, 0.5 mM Mg(OAc)2, plus 1x loading dye (orange G, glycerol, EDTA); 30 min on ice; native 6% acrylamide/TBE PAGE. Conditions: protein: recombinant; tags: SII (Cft2-SII) when alone; untagged in CPFpol+Cft2 and CPFcore; label: 5'-FAM. Background: In EMSA bound probe runs differently from free probe, usually more slowly.
In the case of AAAAAAAAAAAAAAA (ssRNA) [A15], the binding result is on record as “no binding”.
With GGGGGGGGGGGGGGG (ssRNA) [G15], the binding result is “binds”.
The same measure, in the same setting: for CGUUAUUUAUAUUUCAAAUUUUUCU (ssRNA) [CYC1f EMSA probe] the value was “binds”; for CCCCCCCCCCCCCCC (ssRNA) [C15], “no binding”.
Take UUUUUUUUUUUUUUU (ssRNA) [U15]: the binding result is given as “no binding”.
Regarding AAGAACGUUAUUUAUAUUUCAAAUUUUUCUUUUUU (ssRNA) [CYC1d EMSA probe], the binding result is “binds”.

Another data set has as its target T2, Hrp1 (CF IB) (Saccharomyces cerevisiae, UniProt Q99383 1-534).
T2 sequence: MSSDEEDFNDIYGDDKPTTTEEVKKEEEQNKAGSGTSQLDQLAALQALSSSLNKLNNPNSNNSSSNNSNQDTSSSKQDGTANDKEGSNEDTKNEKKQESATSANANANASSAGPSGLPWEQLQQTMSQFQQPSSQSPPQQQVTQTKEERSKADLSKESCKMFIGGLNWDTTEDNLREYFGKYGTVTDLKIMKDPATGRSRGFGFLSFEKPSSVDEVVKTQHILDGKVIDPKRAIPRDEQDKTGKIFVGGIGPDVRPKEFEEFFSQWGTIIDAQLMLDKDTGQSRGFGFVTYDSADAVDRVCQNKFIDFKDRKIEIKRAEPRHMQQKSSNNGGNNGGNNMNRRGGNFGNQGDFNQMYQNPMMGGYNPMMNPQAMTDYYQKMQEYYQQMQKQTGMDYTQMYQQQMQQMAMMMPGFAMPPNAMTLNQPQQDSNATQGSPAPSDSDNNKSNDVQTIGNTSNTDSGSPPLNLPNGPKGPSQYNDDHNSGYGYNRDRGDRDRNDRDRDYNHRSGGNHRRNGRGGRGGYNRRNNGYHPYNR
The description is as above. The note with it: protein: recombinant; tags: 6H (6H-Hrp1); label: 5'-FAM.
For the molecule GGGGGGGGGGGGGGG (ssRNA) [G15], the binding result is given as “binds”.
Still for that read-out and setting: the same measure for CGUUAUUUAUAUUUCAAAUUUUUCU (ssRNA) [CYC1f EMSA probe]: “binds”; for CCCCCCCCCCCCCCC (ssRNA) [C15]: “no binding”.
The same measure, in the same setting: the same measure for UUUUUUUUUUUUUUU (ssRNA) [U15]: “binds”.
AAGAACGUUAUUUAUAUUUCAAAUUUUUCUUUUUU (ssRNA) [CYC1d EMSA probe]: the binding result is recorded as “binds”.

The next data set addresses Pap1 (Saccharomyces cerevisiae, UniProt P29468 1-568). The data set is described as above. Conditions: protein: recombinant; tags: SII (Pap1-SII) when alone; untagged in CPFpol and CPFcore; label: 5'-FAM.
For the molecule AAAAAAAAAAAAAAA (ssRNA) [A15], the binding result is recorded as “no binding”.
Same read-out and setting: the same measure for GGGGGGGGGGGGGGG (ssRNA) [G15]: “no binding”; for CGUUAUUUAUAUUUCAAAUUUUUCU (ssRNA) [CYC1f EMSA probe]: “no binding”; for CCCCCCCCCCCCCCC (ssRNA) [C15]: “no binding”.
The same measure, in the same setting: for UUUUUUUUUUUUUUU (ssRNA) [U15] the value was “no binding”; for AAGAACGUUAUUUAUAUUUCAAAUUUUUCUUUUUU (ssRNA) [CYC1d EMSA probe], “no binding”.

The target in a further data set is T3, CPFpol: Cft1-Pfs2_(-3C-SII)-Yth1_(-3C-8H)-Fip1-Pap1 (S. cerevisiae, UniProt Q06632 1-1357; P42841 1-465; Q06102 1-208; P45976 1-327; P29468 1-568).
T3 construct: Cft1, S. cerevisiae; Pfs2, S. cerevisiae; Yth1, S. cerevisiae; Fip1, S. cerevisiae; Pap1, S. cerevisiae; also called polymerase module; source: Sf9, purified as described previously (Casañal et al., 2017); not shown: StrepII, C-terminal, kept; copies: + + + +
The data set can be described thus: pull-down; Strep-tagged bait proteins and complexes (100 μL at 1.5 μM) immobilised on Streptactin beads; prey CF IA, CF IB, Rna14-Rna15 or Pcf11-Clp1 (20 μL at 4.0 μM) bound 60 min at 4°C; 10 mM HEPES pH 7.9, 150 mM NaCl, 0.5 mM Mg(OAc)2, 0.05% Tween-20; SDS-PAGE, InstantBlue. Conditions: both partners purified.
As for B1, the binding result is on record as “binds”.

A further data set addresses T4, CPF_(core): Cft1-Pfs2_(-3C-SII)-Yth1_(-3C-8H)-Fip1-Pap1-Cft2-Ysh1-Mpe1 (S. cerevisiae, UniProt Q06632 1-1357; P42841 1-465; Q06102 1-208; P45976 1-327; P29468 1-568; Q12102 …).
T4 construct: Cft1, S. cerevisiae; Pfs2, S. cerevisiae; Yth1, S. cerevisiae; Fip1, S. cerevisiae; Pap1, S. cerevisiae; Cft2, S. cerevisiae; Ysh1, S. cerevisiae; Mpe1, S. cerevisiae; also called eight-subunit core cleavage and polyadenylation factor complex; source: Sf9, co-expressed from one multi-gene baculovirus construct, purified (StrepTactin, Mono Q, Superose 6); not shown: StrepII, C-terminal, kept; …
The description is as above. The note with it: both partners purified.
With B1, the binding result is “binds”.

Another data set addresses T5, CPFpol (no Pap1): Cft1-Pfs2_(-3C-SII)-Yth1_(-3C-8H)-Fip1 (S. cerevisiae, UniProt Q06632 1-1357; P42841 1-465; Q06102 1-208; P45976 1-327).
T5 construct: Cft1, S. cerevisiae; Pfs2, S. cerevisiae; Yth1, S. cerevisiae; Fip1, S. cerevisiae; also called polymerase module without Pap1; source: Sf9, purified as described previously (Casañal et al., 2017); not shown: StrepII, C-terminal, kept; copies: + + +
The description is as above. Conditions: both partners purified.
B1: the binding result is on record as “binds”.
